Measured values as given in patent US20220089784A1 (University of California, published 2022).

B1: 6F10 IgG (antibody, V domains shown)
VH: EVQLQESGGDLVKPGGSLKLSCAASGFTFSYYGMSWVRQTPDKRLEWVATISSGGTYTYYPDSVKGRFTISRDNAKNTLYLQMSSLSSEDTAMYYCARRRSYDSVYWYFDVWGAGTSVTVSS
VL: DIVLTQSPAITAASLGQKVTITCSASSSGSYIHWYQQKSGTSPKLLIYRTSNLASGVPSRFSGSGSGTFYSLTISSVEAEDAADYFCHQWSSYPTFGGGTKLEIK
notes: IgG from scFv V genes
B2: 6F7 IgG (antibody, V domains shown)
VH: QVQLQESGPGLVKPSQTVSLTCTVAGYSITNGNHWWNWIRQVSGSKLEWIGYITSSGSTDSNPSLKSRISITRDTSKNQLFLQLNSVTTEDIATYYCARSSNYFFHVLDYWGQGTSVTVSS
VL: DIVLTQTPAIMSASPGEKVTMTCSASSSVSYMHWFQQKPGTSPKLWIYSTSNLASGVPARFSGSGSGTSYSLTISRMEAEDAATYYCQQRSSYPPTFGGGTRLEIK
notes: IgG from scFv V genes
B3: 6F8 IgG (antibody, V domains shown)
VH: QVQLKQSGAELVKSGASVKLSCTASGFNIKDFYMHWVKQRTEQGLEWIGRIDPEDGETKYAPKFQGKATITADTSSNTAYLQLSSLTSEDTAVYYCVRDRDYDWGQGTTLTVSS
VL: not shown
notes: IgG from scFv V genes
B4: 6F6 IgG (antibody, V domains shown)
VH: EVQLLESGGGLVKPGGSRKLSCEASGFTFSDYGMHWVRQAPEKGLEWVGYISSGSRIIYYADTVKGRITISRDNAKNTLFLQMTSLRSEDTAMYYCVRGTWVFDYWGQGTTLTVSS
VL: DIVMTQSPASLAVSLGQRATISCRASESVDNYGISFMNWFQQKPGQPPKLLIYAASNLESGIPARFSGSGSGTDFTLTINPVEADDVATYYCQQSNEDPYTFGGGTKLEIK
notes: IgG from scFv V genes
B5: 6F9 IgG (antibody, V domains shown)
VH: QVQLQQPGAELVKPGASVKLSCKASGNSFASSWMHWVKQRPGQGLEWIGMIHPYSGSTNFNEKFKSKATLSVDKSSSTAYMQLSSLTSEDSAVYYCAMNWDWYFDVWGTGTTVTVSA
VL: DVVMTQSPKFMSTSVGDRVSITCKASQDVGTAVAWYQQKPGQSPKLLIYWASTRHTGVPDRFTGSGSGTDFTLTISDVLSEDLADYFCQQYGGYPTFGGGTKLEIK
notes: IgG from scFv V genes
B6: 6F4 IgG (antibody, V domains shown)
VH: EVQLQESGPELVKPGASVKISCKTSGYTFTDYYMNWVKQSHGKSLEWIGDINPNNGGATYNQKFKGKATLTVDKSSRTLYMELRSLTSEDSAVYHCACGPYFFDFWGQGTTLTVSS
VL: QIVLTQSPATMSASPGEKVTITCSASSSVNYMHWYQQKPGSSPKLWIYDTSSLAPGVPARFSGSGSGTSYSLTISSMEAEDAASYFCHQWSSYPYTFGGGTKLEIK
notes: IgG from scFv V genes

target: T1, BoNT/F1 (proteolytic BoNT/F) (Clostridium botulinum, UniProt A7GBG3 1-1278); assay: IgG
T1 sequence: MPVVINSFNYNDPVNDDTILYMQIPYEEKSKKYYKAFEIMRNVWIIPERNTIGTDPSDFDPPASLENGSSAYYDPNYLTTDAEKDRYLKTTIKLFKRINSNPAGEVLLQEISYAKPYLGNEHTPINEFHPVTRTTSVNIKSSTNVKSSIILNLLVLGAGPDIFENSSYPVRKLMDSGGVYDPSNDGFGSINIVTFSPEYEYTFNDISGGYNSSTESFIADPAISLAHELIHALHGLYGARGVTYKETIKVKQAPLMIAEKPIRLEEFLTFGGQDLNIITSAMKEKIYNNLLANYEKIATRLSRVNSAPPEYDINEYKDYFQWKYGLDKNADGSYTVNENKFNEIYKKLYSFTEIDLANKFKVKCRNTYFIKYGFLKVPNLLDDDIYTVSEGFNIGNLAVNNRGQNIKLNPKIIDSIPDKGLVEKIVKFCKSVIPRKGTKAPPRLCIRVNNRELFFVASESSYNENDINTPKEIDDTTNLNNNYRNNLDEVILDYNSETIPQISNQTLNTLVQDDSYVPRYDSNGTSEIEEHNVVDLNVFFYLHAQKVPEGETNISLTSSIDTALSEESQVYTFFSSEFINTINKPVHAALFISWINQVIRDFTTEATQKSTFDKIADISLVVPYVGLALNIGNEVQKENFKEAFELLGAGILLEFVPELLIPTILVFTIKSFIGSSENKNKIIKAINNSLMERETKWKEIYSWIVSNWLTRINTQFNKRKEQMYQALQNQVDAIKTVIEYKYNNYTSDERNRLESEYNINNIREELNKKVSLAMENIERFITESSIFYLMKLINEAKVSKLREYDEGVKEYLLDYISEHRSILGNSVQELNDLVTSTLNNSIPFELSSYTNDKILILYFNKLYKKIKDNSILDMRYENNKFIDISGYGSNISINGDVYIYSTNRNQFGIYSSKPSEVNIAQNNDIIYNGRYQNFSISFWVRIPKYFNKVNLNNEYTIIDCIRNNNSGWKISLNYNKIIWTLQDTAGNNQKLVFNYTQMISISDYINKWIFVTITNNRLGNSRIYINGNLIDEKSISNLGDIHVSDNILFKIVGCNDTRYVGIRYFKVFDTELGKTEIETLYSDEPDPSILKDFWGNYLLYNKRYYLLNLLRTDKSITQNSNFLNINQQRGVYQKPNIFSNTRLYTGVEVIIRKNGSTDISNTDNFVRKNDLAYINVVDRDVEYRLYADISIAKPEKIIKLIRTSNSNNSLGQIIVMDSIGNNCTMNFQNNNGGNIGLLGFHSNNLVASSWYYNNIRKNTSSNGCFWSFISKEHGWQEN

With B1 as the binder, how does the Kd read?
The Kd was 70 pM.

With B2 as the binder, how does the Kd read?
The Kd was 570 pM.

For B3, which Kd is on record?
The Kd was 220 pM.

For B4, which Kd is on record?
The Kd was 48 pM.

For B5, which Kd is on record?
The Kd was 260 pM.

With B6 as the binder, how does the Kd read?
Its Kd is 1170 pM.
